Among the data in article PMC8096250 are binding signal (% of RNPs substrate bound) values, retold here.

The data set concerns the target Nhp2 (W);Cbf5;Nop10;Gar1 (Saccharomyces cerevisiae;Saccharomyces cerevisiae;Saccharomyces cerevisiae;Saccharomyces cerevisiae) (UniProt P33322+Q6Q547+P28007). The experiment in a line: smFRET. To be noted: substrate RNA binding to the reconstituted H5 RNP; substrate is an analogue RNA; sequence as assayed not given; smFRET with immobilized 3'-biotin RNA; smFRET buffer not in the material (RNP reconstitution for activity assays: 12.5 mM Tris/HCl pH 8.0, 250 mM NaCl, 30 °C).

With “H5 U61-donor snoRNA with acceptor-labeled H5 substrate RNA”, the binding signal (% of RNPs substrate bound) is 37.
